Measurements as given in PMC12140367, “Discovery, Herbicidal Activity and Biosynthesis of a Novel Natural Tetramic Acid from Alternaria Species” (Advanced Science, 2025).

Legend:
Format in all cases: biochemical, Alternaria alternata
CCC(O)(CC(=O)O)C(=O)O = test: UPLC-MS quantification of 3EMA formed; details: 250 mM potassium phosphate pH 7.0, 30 °C
CCC(=O)C(=O)O = test: UPLC-MS quantification of 2EMA formed; details: 1 mM acetyl-CoA, 10 mM MgCl2, potassium phosphate pH 7.5, 30 °C
CCC(C(=O)O)C(O)C(=O)O = test: UPLC-MS quantification of OVA formed; details: 1 mM NAD+, 5 mM MnCl2, 1 mM DTT, MOPS-KCl pH 7.5, 30 °C

Substance: IPMDH (Alternaria alternata)
- Km (CCC(O)(CC(=O)O)C(=O)O): 786.26 µM

Substance: IPMS (Alternaria alternata)
- Km (CCC(=O)C(=O)O): 164.36 µM

Substance: ISMD (Alternaria alternata)
- Km (CCC(C(=O)O)C(O)C(=O)O): 87.20 µM
